This assay deals with QL9, nonameric variant of p2Ca (2-oxoglutarate dehydrogenase); residues not printed peptide on H-2Ld (mouse). Kind of assay: value cited from Manning et al. 1999; single-chain.

Consider 2C TCR, for which the Kd came out at 3.2 µM.

Usually Kd stands for the constant that tells how readily two partners part at equilibrium. Low values mean a tighter complex, high ones a looser complex.

(Values after patent publication US20020058253A1.)
